Source: patent US20230070886A1 (NOVAVAX, published 2023)

Biological target: His-tagged human angiotensin-converting enzyme 2 precursor (hACE2) (human, UniProt Q9BYF1 18-740)
Test: bio-layer interferometry

His-tagged human angiotensin-converting enzyme 2 precursor (hACE2), sequence (Q9BYF1 18-740 limits assumed): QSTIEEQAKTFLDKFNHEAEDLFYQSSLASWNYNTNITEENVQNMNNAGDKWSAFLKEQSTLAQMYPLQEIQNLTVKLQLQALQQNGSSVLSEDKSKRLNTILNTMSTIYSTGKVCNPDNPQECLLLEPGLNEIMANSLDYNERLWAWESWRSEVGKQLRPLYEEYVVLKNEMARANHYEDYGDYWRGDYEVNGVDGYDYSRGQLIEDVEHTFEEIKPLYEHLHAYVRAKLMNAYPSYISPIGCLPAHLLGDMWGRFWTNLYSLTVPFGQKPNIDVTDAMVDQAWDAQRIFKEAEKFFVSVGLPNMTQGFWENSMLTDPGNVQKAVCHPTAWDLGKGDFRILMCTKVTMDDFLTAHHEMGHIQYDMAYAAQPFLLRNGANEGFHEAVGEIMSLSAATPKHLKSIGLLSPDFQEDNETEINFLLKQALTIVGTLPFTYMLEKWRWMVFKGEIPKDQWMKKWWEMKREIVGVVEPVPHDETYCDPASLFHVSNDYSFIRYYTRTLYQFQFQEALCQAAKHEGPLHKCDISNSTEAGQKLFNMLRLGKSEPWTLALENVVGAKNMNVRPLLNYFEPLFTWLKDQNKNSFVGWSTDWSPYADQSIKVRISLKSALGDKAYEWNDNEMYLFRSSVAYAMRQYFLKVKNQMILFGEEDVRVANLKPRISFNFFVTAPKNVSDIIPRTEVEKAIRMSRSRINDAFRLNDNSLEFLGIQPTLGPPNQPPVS

B1: MERS S protein (other)
chain: YVDVGPDSVKSACIEVDIQQTFFDKTWPRPIDVSKADGIIYPQGRTYSNITITYQGLFPYQGDHGDMYVYSAGHATGTTPQKLFVANYSQDVKQFANGFVVRIGAAANSTGTVIISPSTSATIRKIYPAFMLGSSVGNFSDGKMGRFFNHTLVLLPDGCGTLLRAFYCILEPRSGNHCPAGNSYTSFATYHTPATDCSDGNYNRNASLNSFKEYFNLRNCTFMYTYNITEDEILEWFGITQTAQGVHLFSSRYVDLYGGNMFQFATLPVYDTIKYYSIIPHSIRSIQSDRKAWAAFYVYKLQPLTFLLDFSVDGYIRRAIDCGFNDLSQLHCSYESFDVESGVYSVSSFEAKPSGSVVEQAEGVECDFSPLLSGTPPQVYNFKRLVFTNCNYNLTKLLSLFSVNDFTCSQISPAAIASNCYSSLILDYFSYPLSMKSDLSVSSAGPISQFNYKQSFSNPTCLILATVPHNLTTITKPLKYSYINKCSRFLSDDRTEVPQLVNANQYSPCVSIVPSTVWEDGDYYRKQLSPLEGGGWLVASGSTVAMTEQLQMGFGITVQYGTDTNSVCPKLEFANDTKIASQLGNCVEYSLYGVSGRGVFQNCTAVGVRQQRFVYDAYQNLVGYYSDDGNYYCLRACVSVPVSVIYDKETKTHATLFGSVACEHISSTMSQYSRSTRSMLKRRDSTYGPLQTPVGCVLGLVNSSLFVEDCKLPLGQSLCALPDTPSTLTPRSVRSVPGEMRLASIAFNHPIQVDQLNSSYFKLSIPTNFSFGVTQEYIQTTIQKVTVDCKQYVCNGFQKCEQLLREYGQFCSKINQALHGANLRQDDSVRNLFASVKSSQSSPIIPGFGGDFNLTLLEPVSISTGSRSARSAIEDLLFDKVTIADPGYMQGYDDCMQQGPASARDLICAQYVAGYKVLPPLMDVNMEAAYTSSLLGSIAGVGWTAGLSSFAAIPFAQSIFYRLNGVGITQQVLSENQKLIANKFNQALGAMQTGFTTTNEAFHKVQDAVNNNAQALSKLASELSNTFGAISASIGDIIQRLDVLEQDAQIDRLINGRLTTLNAFVAQQLVRSESAALSAQLAKDKVNECVKAQSKRSGFCGQGTHIVSFVVNAPNGLYFMHVGYYPSNHIEVVSAYGLCDAANPTNCIAPVNGYFIKTNNTRIVDEWSYTGSSFYAPEPITSLNTKYVAPQVTYQNISTNLPPPLLGNSTGIDFQDELDEFFKNVSTSIPNFGSLTQINTTLLDLTYEMLSLQQVVKALNESYIDLKELGNYTYYNKWPWYIWLGFIAGLVALALCVFFILCCTGCGTNCMGKLKCNRCCDRYEEYDLEPHKVHVH
binding result: no binding
